# Experimental data reported in article PMC4316792, “The dehydrogenase region of the NADPH oxidase component Nox2 acts as a protein disulfide isomerase (PDI) resembling PDIA3 with a role in the binding of the activator protein p67^phox” (Frontiers in Chemistry, 2015).
# Residue numbers refer to the chain shown, from its start. “Also recorded” adds a separate entry of the source. Bridges are numbered along the chain shown (N, C = ends). The star is where a group is joined. Biotin = O=C1N[C@H]2[C@H](CS[C@H]2CCCCC(=O)*)N1
# T1: p67^phox(1–212) (UniProt P19878 1-212)
# T1 construct: contains four cysteines (40, 45, 121, 165); source: E. coli, purified (Nickel Sepharose); not shown: 6His, N-terminal, kept
# T1 sequence (looked up): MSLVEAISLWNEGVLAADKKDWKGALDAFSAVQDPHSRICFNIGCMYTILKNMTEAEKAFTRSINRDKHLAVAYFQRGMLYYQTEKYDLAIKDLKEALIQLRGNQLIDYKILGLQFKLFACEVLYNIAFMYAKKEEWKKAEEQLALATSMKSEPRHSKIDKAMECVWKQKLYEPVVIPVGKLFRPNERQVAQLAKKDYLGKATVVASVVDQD
# T2: p67^phox(1–526) (UniProt P19878 1-526)
# T2 construct: construct as in Mizrahi et al., 2010; also called full-length p67^phox; 6His-p67^phox; source: E. coli, purified (Nickel Sepharose); not shown: 6His, N-terminal, kept
# T2 sequence (looked up): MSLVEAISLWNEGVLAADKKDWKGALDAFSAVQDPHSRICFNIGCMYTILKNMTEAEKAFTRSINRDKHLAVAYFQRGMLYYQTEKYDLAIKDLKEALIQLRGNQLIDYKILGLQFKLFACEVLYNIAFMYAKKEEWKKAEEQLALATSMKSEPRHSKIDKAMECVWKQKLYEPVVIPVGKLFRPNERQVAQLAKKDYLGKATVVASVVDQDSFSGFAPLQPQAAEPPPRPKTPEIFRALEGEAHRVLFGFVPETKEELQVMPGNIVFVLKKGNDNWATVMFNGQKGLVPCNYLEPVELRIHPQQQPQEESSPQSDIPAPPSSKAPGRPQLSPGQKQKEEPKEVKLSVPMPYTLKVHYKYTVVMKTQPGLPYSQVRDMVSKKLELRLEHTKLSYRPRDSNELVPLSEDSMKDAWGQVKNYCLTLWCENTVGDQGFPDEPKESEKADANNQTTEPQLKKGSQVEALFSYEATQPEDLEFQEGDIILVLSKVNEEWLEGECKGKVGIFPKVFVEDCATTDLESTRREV
# B1: NusA-Nox2(357–570): fusion protein of NusA and Nox2 residues 357–570, contains the CGC triad (protein)
# chain: IVGDWTEGLFNACGCDKQEFQDAWKLPKIAVDGPFGTASEDVFSYEVVMLVGAGIGVTPFASILKSVWYKYCNNATNLKLKKIYFYWLCRDTHAFEWFADLLQLLESQMQERNNAGFLSYNIYLTGWDESQANHFAVHHDEEKDVITGLKQKTLYGRPNWDNEFKTIASQHPNTRIGVFLCGPEALAETLSKQSISNSESGPRGVHFIFNKENF
# modifications: left off: NusA (E. coli), N-terminal, kept | His tag (from the purification on Nickel Sepharose), end not stated, state not stated
# notes: fusion protein of NusA and Nox2 residues 357–570, contains the CGC triad
# B2: Nox2 peptide 28 (369–383) with an intramolecular disulfide bond linking cysteines 369 and 371 (peptide)
# peptide: Biotin-SGSGCGCDKQEFQDAWKLP-NH2
# modifications: disulfide 5-7
# SMILES: CC(C)C[C@H](NC(=O)[C@H](CCCCN)NC(=O)[C@H](Cc1c[nH]c2ccccc12)NC(=O)[C@H](C)NC(=O)[C@H](CC(=O)O)NC(=O)[C@H](CCC(N)=O)NC(=O)[C@H](Cc1ccccc1)NC(=O)[C@H](CCC(=O)O)NC(=O)[C@H](CCC(N)=O)NC(=O)[C@H](CCCCN)NC(=O)[C@H](CC(=O)O)NC(=O)[C@@H]1CSSC[C@H](NC(=O)CNC(=O)[C@H](CO)NC(=O)CNC(=O)[C@H](CO)NC(=O)CCCC[C@@H]2SC[C@@H]3NC(=O)N[C@@H]32)C(=O)NCC(=O)N1)C(=O)N1CCC[C@H]1C(N)=O
# notes: spacer between the N-terminal biotin and the peptide, printed as Ser-Gly-Ser-Gly; also called peptide 28, disulfide form; source: synthetic peptide (Mimotopes or Bachem); not shown: biotin, N-terminal, kept
# B3: p67^phox(1–212): wild-type recombinant p67phox residues 1–212 (protein)
# chain: T1 sequence (looked up)
# modifications: left off: 6His, N-terminal, kept
# B4: Mutant p67^phox: recombinant p67phox(1–212) in which cysteines 40, 45, 121, and 165 were mutated to serine (protein)
# chain: T1 sequence (looked up) with C40S, C45S, C121S, C165S
# modifications: left off: 6His, N-terminal, kept
# notes: recombinant p67phox(1–212) in which cysteines 40, 45, 121, and 165 were mutated to serine
# Assays:
# [1] = system: p67^phox(1–526); test: Effect of thiol reagents on binding of p67phox(1–526) to Nox2 peptide 24; details: 1 h room temperature
# [2] = system: NADPH oxidase; parameters: method as in 8 sources, one per row (each row's own in cited_ref): ref Shpungin et al., [1989] ||| ref Bellavite et al., [1983]; Gabig and Lefker, [1984] ||| ref Pick et al., [1987] ||| ref Le Cabec and Maridonneau-Parini, [1995] ||| ref Nishida et al., [2005] ||| ...; details: acts on a membrane component; ref Shpungin et al., [1989]; cited from earlier work
# [3] = system: NADPH oxidase in intact phagocytes / neutrophils; parameters: method as in 3 sources, one per row (each row's own in cited_ref): ref Cohen and Chovaniec, [1978]; Yamashita et al., [1984] ||| ref Le Cabec and Maridonneau-Parini, [1995] ||| ref Tsunawaki et al., [2004]; details: added before activation; ref Cohen and Chovaniec, [1978]; Yamashita et al., [1984]; cited from earlier work
# [4] = target: NusA-Nox2(357–570) (human) (UniProt P04839); test: SEC; FPLC gel filtration on HiLoad 16/60 Superdex 200 prep grade; separated a polymeric fraction from a homodimer fraction
# [5] = system: PDI; details: disulfide form; ref Kersteen and Raines, [2003]; Wang et al., [2011]; cited from earlier work
# From the text: Based on the resemblance of the CXC motif with the CXXC motif characteristic of the catalytic motifs of PDI and thioredoxin, we synthesized analogs of Nox2 peptide 24 ([…]) in which the CGC sequen ...
# [6] = system: p67^phox(1–526); test: Protein–protein binding assay, p67phox(1–526); details: homodimers, 0.5 μM, p67phox coated at 0.5 μM; one characteristic experiment (Figure 5A)
# [7] = PDI reductase activity, DE-GSSG reduction; format: biochemical; details: for Vmax, PDI reductase activity (Figure 6B): DTT only 5,124
# [8] = system: oxidized insulin; test: Insulin reduction (turbidimetric) assay; format: biochemical; details: up to 5 μM
# [9] = system: p67^phox(1–212); test: Protein–protein binding assay, p67phox(1–212)
# [10] = target: T1, p67^phox(1–212); test: ELISA; peptide—protein binding of p67^phox to Nox2 peptide 28, told in the results without a figure (the introduction gives manuscripts in preparation); details: both partners purified
# [11] = target: T2, p67^phox(1–526); test: as above; details: both partners purified
# [12] = Binding of thiol reagent mBBr to p67phox(1–212); details: results not shown
# [13] = target: T3, NADPH oxidase (macrophage membrane liposomes, cytochrome b558) (Cavia porcellus, UniProt H0UXC6); test: Cell-free NADPH oxidase activation, amphiphile- and p47phox-independent; format: biochemical, guinea pig; details: equal concentrations of p67phox and prenylated Rac1 Q61L 50–600 nM, 5 nM cytochrome b558 heme, 5 min (Figure 13B), read-out: EC50, support of NADPH oxidase activation
# [14] = target: T3, NADPH oxidase (macrophage membrane liposomes, cytochrome b558); test: Cell-free NADPH oxidase activation, amphiphile- and p47phox-dependent; format: biochemical, guinea pig; details: for EC50: equal concentrations of p67phox, p47phox and Rac1 Q61L 10–200 nM, LiDS 120 μM, 5 nM cytochrome b558 heme, 90 s (Figure 13A), read-out: EC50, support of NADPH oxidase activation
# [15] = system: Nox2 peptide 24 (357–371); test: Peptide–protein binding assay, wild type and Cys to Ser mutant p67phox(1–212) to Nox2 peptide 24; details: 3 experiments (Figure 12); for binding to Nox2 peptide 24 in the disulfide form: 24N CGC S-S; for binding to Nox2 peptide 24 in the dithiol (reduced) form: 24N CGC
molecule,measurement,setting,value
"CCN1C(=O)C=CC1=O [NEM, N-ethylmaleimide]",effect of pretreatment of p67phox on low affinity binding to native form of peptide 24,"[1]; NEM 0.1 mM or diamide 5 mM, three experiments (Figure 2A,B)",suppressed
same,effect of NEM pretreatment of p67phox on binding to peptide 24 in the disulfide form,"[1]; p67^phox(1–526) 1.5 μM, NEM 0.1 mM, three experiments (Figure 2A)",totally abolished
same,inhibition of oxidase activation in vitro,[2],inhibited
same,inhibition of oxidase activation in intact phagocytes,[3],inhibited
NusA-Nox2(357–570) (from UniProt P04839 357-570) (domain or fragment),stoichiometry N,[4],2
RKCGC (disulfide) [small peptide RKCGC],mimicry of the actions of PDI protein,[5],can mimic the actions of PDI protein
B1,binding of NusA-Nox2 to p67phox(1–526),[6],significant binding
same,"Vmax, PDI reductase activity (Figure 7A)","[7]; 1 μM, DE-GSSG 0.8 μM, DTT 12.5 μM, pH 7.0, 24°C, mean ± SEM of 9 experiments","49,164 ± 2271"
same,"Vmax, PDI reductase activity (Figure 6B)","[7]; 1 μM, DE-GSSG 800 nM, DTT 12.5 μM, one characteristic experiment","41,130 milli relative fluorescence units per min"
same,PDI activity compared with DTT alone,[7]; 2 μM (Figure 6A),marked excess
same,"Vmax, PDI reductase activity (Figure 6B)","[7]; 2 μM, DE-GSSG 800 nM, DTT 12.5 μM, one characteristic experiment","62,074 milli relative fluorescence units per min"
same,"Vmax, PDI reductase activity in the absence of PAO (Figure 6D)","[7]; 2 μM, DE-GSSG 800 nM, DTT 12.5 μM, one characteristic experiment, DTT only 8,254","40,306 milli relative fluorescence units per min"
same,"Vmax, PDI reductase activity (Figure 6C)","[7]; 2 μM, DE-GSSG 800 nM, DTT 12.5 μM, one characteristic experiment, DTT only 26,248","127,476 milli relative fluorescence units per min"
same,"Vmax, PDI reductase activity (Figure 6B)","[7]; 3 μM, DE-GSSG 800 nM, DTT 12.5 μM, one characteristic experiment","73,736 milli relative fluorescence units per min"
same,"Vmax, PDI reductase activity (Figure 6B)","[7]; 4 μM, DE-GSSG 800 nM, DTT 12.5 μM, one characteristic experiment","86,162 milli relative fluorescence units per min"
same,dose dependency of reductase activity,[7]; 1–4 μM (Figure 6B),clear dose dependency
same,"Vmax, PDI reductase activity (Figure 6A)","[7]; NusA-Nox2(357–570) 2 μM, DE-GSSG 800 nM, DTT 12.5 μM, pH 7.0, 24°C, 30 min, DTT only 7,108 and 9,423","52,312 ± 1,380 milli relative fluorescence units per min"
same,insulin reductase activity,[8],no activity could be detected
same,binding of NusA-Nox2 to p67phox(1–212),"[9]; homodimers, 0.5 μM, p67phox coated at 0.5 μM, one characteristic experiment (Figure 5B)",significant binding
B2,binding result,[10],binds
same,binding result,[11],binds
B3,binding of mBBr,[12],bound mBBr
same,EC50,[13],224 nM
same,EC50,[14],57.2 nM
same,binding of NusA-Nox2 to p67phox(1–212) relative to p67phox(1–526),"[9]; Figure 5A,B",exceeded
same,binding to Nox2 peptide 24 in the disulfide form,[15],much enhanced binding
same,binding to Nox2 peptide 24 in the dithiol (reduced) form,[15],moderate binding
B4,binding of mBBr,[12],did not
same,EC50,[13],405 nM
same,increase in EC50 versus wild-type,[14],two-fold
same,EC50,[14],114 nM
same,binding to Nox2 peptide 24 in the disulfide form,[15]; listed as mutant protein,markedly reduced
same,binding to Nox2 peptide 24 in the dithiol (reduced) form,[15]; listed as mutant protein,lacked binding ability; also recorded: markedly reduced
